Key:
[1] = test system: CREB (serine 129) and N'IRS-1 (serine 332); assay: Phosphorylation of protein substrates in HEK-293 cells expressing GSK-3β WT or F93A; assay type: cell-based; conditions: forskolin or PMA treated, versus WT-GSK-3β, FIGS. 1E-H
Procedure: The role of Phe93 in substrate binding by employing a cellular system and protein substrates (i.e., not peptides) was further explored. To this end, the WT-GSK-3β and F93A mutant were expressed in HEK-293 cells together with GSK-3 substrates CREB or N′IRS-1 (the N-terminal region of IRS-1). Because GSK-3 requires pre-phosphorylation of its substrates, the cells were treated with forskolin to enhance CREB phosphorylation via activation of cAMP dependent kinase (PKA), or with phorbol ester (PMA) to enhance N′IRS-1 phosphorylation via activation of protein kinase C (PKC).
The phosphorylation of CREB at serine 129, and N′IRS-1 at serine 332 (both GSK-3 phosphorylation sites) was then examined.
Thus, HEK293 cells were co-transfected with WT-GSK-3β or F93A plasmids together with construct coding for CREB. Cells were treated with forskolin (10 μM, 1 hour), and cell extracts were subjected to Western blot analysis using anti-phospho CREB (Ser 129/133) antibody, as presented in FIG. 1E. Expression levels of CREB and GSK-3 proteins are indicated. Results are means of three independent experiments ±SEM.
A similar assay was conducted using N′IRS-1 cDNA construct instead of CREB, and cells were treated with PMA (100 nM, 30 minutes). Expression levels of N′IRS-1 and GSK-3β are indicated. Results are means of three independent experiments ±SEM.

[2] = test system: pIRS-1; assay: In vitro kinase assay of GSK-3β mutants with substrate pIRS-1; assay type: biochemical; conditions: mean ± SEM; WT set to 100%
Procedure: (§1) HEK-293 cells were grown in Dulbecco's Modified Eagle's Medium (DMEM), supplemented with 10% fetal calf serum (FCS), 2 mM glutamine, 100 units/ml penicillin, and 100 μg/ml streptomycin. HEK-293 cells were transiently transfected with indicated constructs, using calcium phosphate method as described [Ilouz et al. (2006) supra]. Cells were lysed in ice-cold buffer G (20 mM Tris-HCl, pH 7.5, 10 mM β-glycerophosphate, 10% glycerol, 1 mM EGTA, 1 mM EDTA, 50 mM NaF, 5 mM sodium pyrophosphate, 0.5 mM orthovanadate, 1 mM benzamidine, 10 μg/ml leupeptin, 5 μg/ml aprotinin, 1 μg/ml pepstatin, and 0.5% Triton X100). Cell extracts were centrifuged for 30 minutes at 15,000×g. Supernatants were collected, and equal amounts of proteins were boiled with SDS sample buffer and subjected to gel electrophoresis (7.5-12% polyacrylamide gel), transferred to nitrocellulose membranes, and immunoblotted with indicated antibodies. For partial purification, cells were lysed in buffer H (20 mM Tris, pH 7.3, 1 mM EGTA, 1 mM EDTA, 1 mM orthovanadate, 25 μg/ml leupeptin, 25 μg/ml aprotinin, and 25 μg/ml pepstatin A, 500 nM microcystine LR, and 0.25% Triton X100). The lysates were centrifuged at 15,000×g. The resulting supernatants were passed through DE-52 (Whatman, Maidstone, England) mini-columns that were equilibrated with buffer H. GSK-3β proteins were eluted with the same buffer containing 0.02 M NaCl. Equal amounts of proteins were used for in vitro kinase assays.
(§2) The GSK-3β proteins (WT or mutants) were incubated with indicated substrate in a reaction mixture (50 mM Tris-HCl, pH 7.3, 10 mM magnesium acetate, and 0.01% β-mercaptoethanol) together with 100 μM ^32P[γ-ATP] (0.5 μCi/assay) for 15 minutes. Reactions were stopped by spotting on p81 paper (Whatman) washed with phosphoric acid, and counted for radioactivity as previously described [Ilouz et al. (2006) supra]. In assays from cells overexpressing GSK-3 proteins, the activity of the endogenous GSK-3 that was determined in cells transfected with the pCMV4 vector was subtracted from the activity values obtained for WT and mutants.
(§3) The GSK-3β mutants were partially purified by ion exchange chromatography, and their abilities to phosphorylate peptide substrates were tested in in vitro kinase assays. The substrates were: pIRS-1, p9CREB, and pGS-1, phosphorylated peptides derived from the insulin receptor substrate-1 (IRS-1), cAMP responsive element binding protein (CREB), and glycogen synthase, respectively.

[3] = test system: pGS-1; assay: In vitro kinase assay of GSK-3β mutants with substrate pGS-1; assay type: biochemical; conditions: mean ± SEM; WT set to 100%
Procedure: as §1, §2, §3

[4] = test system: p9CREB; assay: In vitro kinase assay of GSK-3β mutants with substrate p9CREB; assay type: biochemical; conditions: mean ± SEM; WT set to 100%
Procedure: as §1, §2, §3

B1: F93A: GSK-3β mutant, F93 replaced by alanine (protein)
chain: MSGRPRTTSFAESCKPVQQPSAFGSMKVSRDKDGSKVTTVVATPGQGPDRPQEVSYTDTKVIGNGSFGVVYQAKLCDSGELVAIKKVLQDKRAKNRELQIMRKLDHCNIVRLRYFFYSSGEKKDEVYLNLVLDYVPETVYRVARHYSRAKQTLPVIYVKLYMYQLFRSLAYIHSFGICHRDIKPQNLLLDPDTAVLKLCDFGSAKQLVRGEPNVSYICSRYYRAPELIFGATDYTSSIDVWSAGCVLAELLLGQPIFPGDSGVDQLVEIIKVLGTPTREQIREMNPNYTEFKFPQIKAHPWTKDSSGTGHFTSGVRVFRPRTPPEAIALCSRLLEYTPTARLTPLEACAHSFFDELRDPNVKLPNGRDTPALFNFTTQELSSNPPLATILIPPHARIQAAASTPTNATAASDANTGDRGQTNNAASASASNST
modifications: GSK-3 beta, F93A mutant
notes: GSK-3β mutant, F93 replaced by alanine
[1]
  phosphorylation of CREB and N'IRS-1 in cells: did not enhance the phosphorylation
[2]
  Substrate phosphorylation (% of WT GSK-3β), pIRS-1: 42 ± 13 % of WTGSK-3β
[3]
  Substrate phosphorylation (% of WT GSK-3β), pGS-1: 13 ± 7 % of WTGSK-3β
[4]
  Substrate phosphorylation (% of WT GSK-3β), p9CREB: 46 ± 2 % of WTGSK-3β

Source: patent US9688719B2, “Glycogen synthase kinase-3 inhibitors” (Ramot at Tel-Aviv University Ltd., priority 2011, dated 2017)
